Data taken from patent US20100330094A1 (NOVIMMUNE S A, published 2010).

T1: recombinant human IP-10 (hIP-10) (human, UniProt P02778 22-98)
T1 sequence (looked up): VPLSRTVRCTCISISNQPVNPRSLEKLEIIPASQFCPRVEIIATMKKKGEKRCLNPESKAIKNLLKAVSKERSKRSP


Biological target: T1, recombinant human IP-10 (hIP-10)
Assay: cell-based or functional assay

| Binder | Calcium flux IC50 (nM); 10 nM hIP-10; hCXCR3 L1.2 cells [nM] | Chemotaxis IC50 (nM); 1 nM hIP-10; hCXCR3 L1.2 cells [nM] | Chemotaxis IC50 (nM); 2 nM hIP-10; hCXCR3 L1.2 cells [nM] | Chemotaxis IC50 (nM); 0.2 nM hIP-10; hCXCR3 L1.2 cells [nM] |
| --- | --- | --- | --- | --- |
| CC21R3P1_E7, scFv format (scFv) QLVESGGGVVQPGRSLRLSCAASGFTFSTYGMHWVRQAPGKGLEWVAVISYDGGTKYYADSVKGRFTISRDNSMKTLYLQMNSLRTEDTAVYYCAKDLGDLPPGLDYWGQGTMVTVSSQSVLTQPPSASGTPGQRVTISCSGSSSNIGSNTVNWYQQLPGAAPKLLIYTNNQRPSGVPDRFSGSKSGTSASLAISGLQSEDEADYYCAAWDDSLNGNVVFGGGTKVTVL | 250 |  | 71 |  |
| CC21R3P1_C1a, scFv format (scFv) QVQLVESGGGVVQPGRSLRLSCAASGFTFSSYGMHWVRQAPGKGLEWVAVISYDGSNKYYADSVKGRFTISRDNSKNTLYLQMNSLRAEDTAVYYCAKDEFDAFDIWGRGTMVTVSSSYVLTQPPSVSVAPGTTARITCGGNNIGSRSVHWYQQKPGQAPLLVIYYDSDRPSGIPLRFSGSNSGNTATLTISRVEAGDEADYYCQVWDTSSGHYVFGTGTKVTVL | 37 | 108 |  |  |
| CB21R3P3_E5, scFv format (scFv) QVQLVESGGGVVQPGRSLRLSCAASGFTFSSYGMHWVRQAPGKGLEWVAVISYDGSIKYYADSVKGRFTISRDNSKNTLYLQMNSLRAEDAAVYYCARAPDGHQLDYWGRGTLVTVSSNFMLTQPHSVSESPGKTVTISCTGSSGSIASNYVQWYQQRPGSAPTTVIYEDDQRPSDVPDRFSGSIDSSSNSASLTISGLRTEDEADYYCQSYVSSKWVFGGGTKLTVL | 39 |  | 36 |  |
| CC21R3P1_B9, scFv format (scFv) EVQLVQSGGGVVQPGRSLRLSCAASGFTFSSYGMHWVRQAPGKGLEWVAVISYDGSNKYYADSVKGRFTISRDNSKNTLYLQMNSLRAEDTAVYYCAKDGGWYDWYFDLWGRGTLVTVSSSSELTQDPDVSVALGQTVRITCQGDSLTSYYASWYQQKPGQAPVLVISGNDNRPSGIPDRFSGSNSGNTASLTITGAQAEDAADYYCGSRDSSGYQVVFGAGTKLTVL | 107 | 107 |  |  |
| CB21R3P1_F1, scFv format (scFv) QVQLVESGGGVVRPGRSLRLSCAASGFTFSSYGMHWVRQAPGKGLEWVAVISYDGSIKYYADSVKGRFTISRDNSKNTLYLQMNSLRAEDTAIYYCARVMGTDPHSYYYMDVWGKGTLVTVSSSSELTQDPAVSVALGQTVRITCQGDSLRSYYASWYQRKPGQAPVLVIYGKNNRPSGIPDRFSGSSSGNTASLTITGAQAEDEADYYCNSRDSSGNHVLFGGGTKLTVL | 36 |  | 40 |  |
| CB1R3P4_D3, scFv format (scFv) QVQLVQFGGGVVQPGRSLRLSCAASGFTFSSYGMHWVRQAPGKGLEWVAVISYDGSIKYYADSVKGRFTISRENAKNSVYLQMDSLRVGDTAVYYCTRAGYSTDWHPDYWGQGTMVTVSSSSELTQDPAVSVALGQTVRITCQGDSLRSYYASWYQQKPGQAPVLAIYGKNNRPSGIPDRFSGSSSGNTASLTITGAQAEDEADYYCNSRDSSGNHVVFGGGTKLTVL | 179 | 72 |  |  |
| CB21R3P6_G7, scFv format (scFv) QVQLVQSGAEVKKPGSSVTVSCKASGGTFSSFSITWLRQAPGQGLEWMGEITPMFGIANYAQKFQGRVTISADESTSTAYMELSGLTSEDTAMYYCARDGRFDVSDLLTDKPKVTINYNGMDVWGQGTLVTVSSQSVLTQPPSASGTPGQRVTISCSGSSSNIGSNTVNWYQRLPGAAPQLLIYNNDQRPSGIPDRFSGSKSGTSGSLVISGLQSEDEADYYCASWDDSLNGRVFGGGTKLTVL | 46 | 10 |  |  |
| CB2R2P4_C3, scFv format (scFv) QVTLRESGPALVKPTQTLTLTCTFSGFSLTTSGMSVIWIRQPPGKALEWLARIDSDDEKHYNTSLKTRLAISKDTSKNQVVLTMTNMDPVDTGTYYCARLRAGSGPYVFDSWGQGTTVTVSSQSVLTQPPSASGTPGQRVTISCSGSSSNIGSNTVNWYQRLPGAAPQLLIYNNDQRPSGIPDRFSGSKSGTSGSLVISGLQSEDEADYYCASWDDSLNGRVFGGGTKLTVL | 14 | 15 |  |  |

Continued, values first:

| Calcium flux IC50 (nM); 10 nM hIP-10; hCXCR3 L1.2 cells [nM] | Chemotaxis IC50 (nM); 1 nM hIP-10; hCXCR3 L1.2 cells [nM] | Chemotaxis IC50 (nM); 2 nM hIP-10; hCXCR3 L1.2 cells [nM] | Chemotaxis IC50 (nM); 0.2 nM hIP-10; hCXCR3 L1.2 cells [nM] | Binder |
| --- | --- | --- | --- | --- |
| 71 | 72 |  |  | CC21R3P3_C1, scFv format (scFv) QVQLVESGGGVVQPGRSLRLSCAASGFTFSSYGMHWVRQAPGKGLEWVAVISYDGSIKYYADSVKGRFTISRDNSRNTLYLQMNSLRPEDTAVYYCAKDWGFSGSLTFDYWGQGTMVTVSSSYVLTQPPSVSVAPGKTARITCGGNNIGSKSVHWYQQKPGQAPVLVIYYDSDRPSGIPERFSGSNSGNTATLTISRVEAGDEADYYCQVWDSSSDHVVFGGGTKVTVL |
| 14 | 1.8 |  |  | CF1A11R3P3_F3, scFv format (scFv, V domains shown, not shown: small tags and cut ends) VH: QVQLVESGGGVVQPGRSLRLSCAASGFTFSNSGIHWVRQAPGKGLEWVAVISYDGSNKFYADSVKGRFTISRDNSKNTLYLQMNSLRAEDTAVYYCAKLRDNGEYLDYWGQGTLVTVSS VL: NFMLTQPHSVSESPGKTVTISCTGSGGSIDRNYVQWYQQRPGSAPITVIYEDNQRPSGVPDRFSGSIDSSSNSASLTISGLRTDDEADYYCQSYDSINLWVFGGGTKVTVL |
|  |  |  | 0.12 | CF1N1R3P4_C7, scFv format (scFv) QVQLVESGGGVVQPGRSLRLSCAASGFTFSNSGIHWVRQAPGKGLEWVAVISYDGSNKFYADSVKGRFTISRDNSKNTLYLQMNSLRAEDTAVYYCAKLRDNAEYTDYWGQGTLVTVSSNFMLTQPHSVSESPGKTVTISCTGSGGSIDRNYVQWYQQRPGSSPTTVIYEDNQRPSGVPDRFSGSIDSSSNSASLTISGLKTEDEADYYCQSYDPLPVWVFGGGTKLTVL |
| 7.8 |  |  | 0.39 | CF1H1R3P3_G11, scFv format (scFv) QVQLVESGGGVVQPGRSLRLSCAASGFTFSNSGIHWVRQAPGKGLEWVAVISYDGSNKFYADSVKGRFTISRDNSKNTLYLQMNSLRAEDTAVYYCAKLRDNGEYLDYWGQGTLVTVSSNFMLTQPHSVSESPGKTVTISCTGSGGSIDRNYVQWYQQRPGSSPTTVIYEDNQRPSGVPDRFSGSIDSSSNSASLTISGLKTEDEADYYCQSYDPLPVWVFGGGTKLTVL |
| 2.4 |  |  | 0.51 | CF1H1R3P4_B5, scFv format (scFv) QVQLVESGGGVVQPGRSLRLSCAASGFTFSNSGIHWVRQAPGKGLEWVAVISYDGSNKFYADSVKGRFTISRDNSKNTLYLQMNSLRAEDTAVYYCAKLRDNGEYLDYWGQGTLVTVSSNFMLTQPHSVSESPGKTVTISCTGSGGSIDRNYVQWYQQRPGSSPTTVIYEDNQRPSGVPDRFSGSIDSSSNSASLTISGLKTEDEADYYCQSYVETPEWVFGGGTKLTVL |
| 36 |  | 18 |  | CC21R3P1_F1, scFv format (scFv) QVQLVESGGGVVQPGRSHTLSCAASGFAFKNSGIHWVRQAPGKGLEWVAVISYDGSNKFYADSVKGRFTISRDNSQNTVYLQMTDLRPDDTAVYYCARDGSESEYLDYWGKGTLVTVSSNFMLTQPHSVSESPGKTVTISCTGSGGSIDRNYVQWYQQRPGSAPITVIYEDNQRPSGVPDRFSGSIDSSSNSASLTISGLRTDDEADYYCQSYDSINLWVFGGGTKVTVL |
| 71 | 36 |  |  | CC21R3P1_H6, scFv format (scFv) QVQLVESGGGVAQSGKSLRLSCAASGFTFSNYGMHWVRQAPGKGLEWLAVISYDGSNRYYADSVKGRFTISRDNSNNTLNLQMSSLRAEDTALYYCAKDAGGPLDYWGKGTLVTVSSQSVLTQLTQPPSVSLAPGQTATITCGGDNIGRKSVHWYQQKPGQAPVLVVYDDTDRPSGIPERFSGSNSGNTATLTISRVEAGDEADYYCQVWDSSIDHSWVFGGGTKLTVL |
|  | 0.9 |  |  | CE7C1R3H8_J9, scFv format (scFv) QVQLVESGGGVVQPGRSLRLSCAASGFTFSTYGMHWVRQAPGKGLEWVAVISYDGGTKYYADSVKGRFTISRDNSMKTLYLQMNSLRTEDTAVYYCAKDLGDLPPGLDYWGQGTMVTVSSQSVLTQPPSASGTPGQRVTISCSGSSSNIGSNTVNWYQQLPGAAPKLLIYTNNQRPSGVPDRFSGSKSGTSASLAISGLQSEDEADYYCAAWDDSSEPRVVFGGGTKVTVL |
| 107 | 36 |  |  | CC21R3P4_F4, scFv format (scFv) QVQLVESGGGVAHSGKSLRLSCAASGFTFSNYGMHWVRQAPGKGLEWLAVISYDGSNRYYADSVKGRFTISRDNSNNTLNLQMSSLRAEDTALYYCAKDAGGPLDYWGRGTLVTVSSSYVLTQPPSVSVAPGQMARITCGGNNIGDKSVQWYQQRPGQAPLLVVYDDSDRPSGIPERFSGSYSRNTATLTISRVEAGDEADYYCQVWDSSSDHPEVVFGGGTKLTVL |

Biological target: T1, recombinant human IP-10 (hIP-10)
Assay: cell-based or functional assay
Remark: another data set of the same source

| Calcium flux IC50 (nM); 10 nM rhIP-10 [nM] | Chemotaxis IC50 (nM); 1 nM rhIP-10 [nM] | Binder |
| --- | --- | --- |
| > 200 | 75 | CC21R3P1_H6, IgG1 format (antibody, V domains shown) VH: QVQLVESGGGVAQSGKSLRLSCAASGFTFSNYGMHWVRQAPGKGLEWLAVISYDGSNRYYADSVKGRFTISRDNSNNTLNLQMSSLRAEDTALYYCAKDAGGPLDYWGKGTLVTVSS VL: VLTQLTQPPSVSLAPGQTATITCGGDNIGRKSVHWYQQKPGQAPVLVVYDDTDRPSGIPERFSGSNSGNTATLTISRVEAGDEADYYCQVWDSSIDHSWVFGGGTKLTVL |
|  | 122 | CB21R3P3_E5, IgG1 format (antibody, V domains shown) VH: QVQLVESGGGVVQPGRSLRLSCAASGFTFSSYGMHWVRQAPGKGLEWVAVISYDGSIKYYADSVKGRFTISRDNSKNTLYLQMNSLRAEDAAVYYCARAPDGHQLDYWGRGTLVTVSS VL: NFMLTQPHSVSESPGKTVTISCTGSSGSIASNYVQWYQQRPGSAPTTVIYEDDQRPSDVPDRFSGSIDSSSNSASLTISGLRTEDEADYYCQSYVSSKWVFGGGTKLTVL |
